Data: patent US20110055942A1

Biological target: T1, BMPR-1A receptor extra cellular domain (ECD), P36894
T1 chain: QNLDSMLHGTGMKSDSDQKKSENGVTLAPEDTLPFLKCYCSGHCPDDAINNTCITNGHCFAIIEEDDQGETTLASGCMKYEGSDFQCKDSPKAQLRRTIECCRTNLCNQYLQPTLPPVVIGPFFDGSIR
Test: radio-ligand competition: cold TDF-1 displacing 125I-labeled TDF-1 from immobilized BMPR-1A ECD
Conditions: remark: other sources report otherwise

ED50: 6.5 nM
B1: TDF-1 (BMP-7 or OP-1), P18075 293-431 (ligand, UniProt P18075 293-431, looked up)
chain: STGSKQRSQNRSKTPKNQEALRMANVAENSSSDQRQACKKHELYVSFRDLGWQDWIIAPEGYAAYYCEGECAFPLNSYMNATNHAIVQTLVHFINPETVPKPCCAPTQLNAISVLYFDDSSNVILKKYRNMVVRACGCH
